Columns and labels:
Conditions in all cases: protein: recombinant; label: fluorescein-dT at T8; single-chain dumbbell, 18 bp with central nick, two tetraloops
[1] = molecular target: T1, PARP-1 F1+F2 (24-kDa DBD) (Homo sapiens, UniProt P09874 1-214); test: fluorescence anisotropy; 25; 50 mM Tris-HCl pH 7.0, 150 uM ZnSO4, 4 mM DTT, 25 C; NaCl 0-200 mM (T2, as in cof; 10 nM DNA) or 25 mM (T3 mutants; 25 nM DNA)
PARP-1 F2 [2] = molecular target: T2, PARP-1 F2 (Homo sapiens, UniProt P09874 103-214); test: fluorescence anisotropy; 75; 50 mM Tris-HCl pH 7.0, 150 uM ZnSO4, 4 mM DTT, 25 C; NaCl 0-200 mM (T2, as in cof; 10 nM DNA) or 25 mM (T3 mutants; 25 nM DNA)
T2 sequence (P09874 103-214): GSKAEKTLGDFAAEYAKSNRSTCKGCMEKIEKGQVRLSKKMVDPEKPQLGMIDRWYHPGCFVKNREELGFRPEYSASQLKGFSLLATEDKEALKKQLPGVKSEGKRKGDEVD

[3] = molecular target: T1, PARP-1 F1+F2 (24-kDa DBD); test: as above
[4] = molecular target: T1, PARP-1 F1+F2 (24-kDa DBD); test: fluorescence anisotropy; 150; 50 mM Tris-HCl pH 7.0, 150 uM ZnSO4, 4 mM DTT, 25 C; NaCl 0-200 mM (T2, as in cof; 10 nM DNA) or 25 mM (T3 mutants; 25 nM DNA)
[5] = molecular target: T1, PARP-1 F1+F2 (24-kDa DBD); test: fluorescence anisotropy; 200; 50 mM Tris-HCl pH 7.0, 150 uM ZnSO4, 4 mM DTT, 25 C; NaCl 0-200 mM (T2, as in cof; 10 nM DNA) or 25 mM (T3 mutants; 25 nM DNA)
PARP-1 F2 [6] = molecular target: T2, PARP-1 F2; test: fluorescence anisotropy; 25 mM NaCl, one-site fit; 50 mM Tris-HCl pH 7.0, 150 uM ZnSO4, 4 mM DTT, 25 C; NaCl 0-200 mM (T2, as in cof; 10 nM DNA) or 25 mM (T3 mutants; 25 nM DNA)
PARP-1 F2 R138I = PARP-1 F2 R138I (Homo sapiens, UniProt P09874 103-214, R138I); test: as above
Chain of PARP-1 F2 R138I (P09874 103-214 R138I): as the sequence (P09874 103-214) above, with R36I counted along it

PARP-1 F2 G135D = PARP-1 F2 G135D (Homo sapiens, UniProt P09874 103-214, G135D); test: as above
Chain of PARP-1 F2 G135D (P09874 103-214 G135D): as the sequence (P09874 103-214) above, with G33D counted along it

PARP-1 F2 K131I/G135D = PARP-1 F2 K131I/G135D (Homo sapiens, UniProt P09874 103-214, K131I;G135D); test: as above
Chain of PARP-1 F2 K131I/G135D (P09874 103-214 K131I/G135D): as the sequence (P09874 103-214) above, with K29I, G33D counted along it

PARP-1 F2 S120G = PARP-1 F2 S120G (Homo sapiens, UniProt P09874 103-214, S120G); test: as above
Chain of PARP-1 F2 S120G (P09874 103-214 S120G): as the sequence (P09874 103-214) above, with S18G counted along it

[7] = molecular target: T1, PARP-1 F1+F2 (24-kDa DBD); test: fluorescence anisotropy; 0 mM NaCl; tight site (KD1); FA: 50 mM Tris-HCl pH 7, 150 uM ZnSO4, 4 mM DTT, 0-200 mM NaCl, 25 C, 10 nM DNA (mutants 25 nM DNA, 25 mM NaCl); EMSA: 50 mM Tris-HCl pH 7.4, 150 uM ZnSO4, 4 mM DTT, 10% glycerol, RT incubation, gel at 4 C; NMR complexes: 50 mM Tris pH 7.0, 150 uM ZnSO4, 4 mM DTT, 37 C
PARP-1 F2 K141I/K142I = PARP-1 F2 K141I/K142I (Homo sapiens, UniProt P09874 103-214, K141I;K142I); test: fluorescence anisotropy; 25 mM NaCl; apparent, one-site model; FA: 50 mM Tris-HCl pH 7, 150 uM ZnSO4, 4 mM DTT, 0-200 mM NaCl, 25 C, 10 nM DNA (mutants 25 nM DNA, 25 mM NaCl); EMSA: 50 mM Tris-HCl pH 7.4, 150 uM ZnSO4, 4 mM DTT, 10% glycerol, RT incubation, gel at 4 C; NMR complexes: 50 mM Tris pH 7.0, 150 uM ZnSO4, 4 mM DTT, 37 C
Chain of PARP-1 F2 K141I/K142I (P09874 103-214 K141I/K142I): as the sequence (P09874 103-214) above, with K39I, K40I counted along it

T1 sequence (P09874 1-214): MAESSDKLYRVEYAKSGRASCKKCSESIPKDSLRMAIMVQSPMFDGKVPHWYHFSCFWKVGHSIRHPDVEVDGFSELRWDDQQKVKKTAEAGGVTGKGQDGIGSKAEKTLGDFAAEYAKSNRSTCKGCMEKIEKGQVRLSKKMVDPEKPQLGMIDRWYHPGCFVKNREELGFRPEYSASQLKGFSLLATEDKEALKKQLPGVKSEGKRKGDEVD

Binder: CGGTCGATCGTAAGATCGACCGGCGCTGGAGCTTGCTCCAGCGC (structured_DNA, 5'-phosphate) [44-nt nicked dumbbell, 5'-phosphate, fluorescein-dT]
- Kd [1]: 20.4 nM
- Kd (PARP-1 F2 [2]): 218 nM
- Kd [3]: 37 nM
- Kd [4]: 24.6 nM
- Kd [5]: 45.4 nM
- Kd (PARP-1 F2 [6]): 343 nM
- Kd (PARP-1 F2 R138I): 19800 nM
- Kd (PARP-1 F2 G135D): 1710 nM
- Kd (PARP-1 F2 K131I/G135D): 3750 nM
- Kd (PARP-1 F2 S120G): 2430 nM
- Kd [7]: 5.7 nM
- Kd (PARP-1 F2 K141I/K142I): 3930 nM

Reference: PMC3094755, “The DNA-Binding Domain of Human PARP-1 Interacts with DNA Single-Strand Breaks as a Monomer through Its Second Zinc Finger”
